# Reference: publication PMC2873192 (Journal of the American Chemical Society, 2009)
# T1: integrin-linked kinase (ILK) ankyrin repeat domain (ARD) (UniProt Q13418 1-171)
# T1 sequence: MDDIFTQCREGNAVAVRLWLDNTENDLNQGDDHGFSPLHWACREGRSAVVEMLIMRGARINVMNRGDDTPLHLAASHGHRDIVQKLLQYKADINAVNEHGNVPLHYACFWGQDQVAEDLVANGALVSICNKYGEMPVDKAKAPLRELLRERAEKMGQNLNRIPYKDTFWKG
# Target: T1, integrin-linked kinase (ILK) ankyrin …
# Assay: ITC
binder,measurement,value
PINCH LIM1 domain (domain or fragment) MANALASATCERCKGGFAPAEKIVNSNGELYHEQCFVCAQCFQQFPEGLFYEFEGRKYCEHDFQMLFAPC,Kd,~68 nM
